Test results reported in PMC9482650, “Quantitative fragmentomics allow affinity mapping of interactomes” (Nature Communications, 2022).

T1: DLG3_1, Q92796
T1 sequence (Q92796 125-227, limits assumed, looked up): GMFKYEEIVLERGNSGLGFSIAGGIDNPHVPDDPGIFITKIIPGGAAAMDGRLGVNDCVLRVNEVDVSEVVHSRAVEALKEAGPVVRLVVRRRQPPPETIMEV

T2: GRIP1_2, Q9Y3R0
T2 sequence (Q9Y3R0 145-248, limits assumed, looked up): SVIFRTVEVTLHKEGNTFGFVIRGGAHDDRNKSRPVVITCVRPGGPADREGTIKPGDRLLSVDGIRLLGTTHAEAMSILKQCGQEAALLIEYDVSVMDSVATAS

T3: MPP2, Q14168
T3 sequence (Q14168 180-250, limits assumed, looked up): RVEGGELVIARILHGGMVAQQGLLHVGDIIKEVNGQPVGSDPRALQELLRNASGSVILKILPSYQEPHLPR

T4: SNTB1, Q13884
T4 sequence (Q13884 107-205, limits assumed, looked up): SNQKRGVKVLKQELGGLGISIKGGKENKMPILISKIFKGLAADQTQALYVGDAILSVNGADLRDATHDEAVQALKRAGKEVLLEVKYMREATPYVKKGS

T5: RADIL, Q96JH8
T5 sequence (Q96JH8 971-1071, limits assumed, looked up): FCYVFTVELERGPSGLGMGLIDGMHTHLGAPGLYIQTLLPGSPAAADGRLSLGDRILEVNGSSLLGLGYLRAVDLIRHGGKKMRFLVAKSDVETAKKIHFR

T6: ARHGEF11, O15085
T6 sequence (O15085 42-136, limits assumed, looked up): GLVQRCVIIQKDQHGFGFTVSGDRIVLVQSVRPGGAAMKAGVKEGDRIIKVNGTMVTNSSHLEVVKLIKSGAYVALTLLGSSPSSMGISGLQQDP

T7: APBA1_1, Q02410
T7 sequence (Q02410 651-752, limits assumed, looked up): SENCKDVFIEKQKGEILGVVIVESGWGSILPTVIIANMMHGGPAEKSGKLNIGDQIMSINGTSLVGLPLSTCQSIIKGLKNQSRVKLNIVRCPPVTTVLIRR

T8: MPDZ_5, O75970
T8 sequence (O75970 695-796, limits assumed, looked up): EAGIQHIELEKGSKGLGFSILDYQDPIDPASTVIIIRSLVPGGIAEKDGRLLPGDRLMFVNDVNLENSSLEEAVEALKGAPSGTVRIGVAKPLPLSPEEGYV

T9: LNX2_2, Q8N448
T9 sequence (Q8N448 334-432, limits assumed, looked up): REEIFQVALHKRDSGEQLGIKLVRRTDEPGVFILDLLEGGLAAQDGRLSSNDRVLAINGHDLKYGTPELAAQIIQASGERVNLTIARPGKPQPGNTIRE

T10: TX1BP3, O14907
T10 sequence (O14907 10-122, limits assumed, looked up): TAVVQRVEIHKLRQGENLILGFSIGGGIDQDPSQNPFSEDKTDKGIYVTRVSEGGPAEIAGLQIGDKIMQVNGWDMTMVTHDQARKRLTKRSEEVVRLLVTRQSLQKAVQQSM

T11: APBA2_2, Q99767
T11 sequence (Q99767 654-744, limits assumed, looked up): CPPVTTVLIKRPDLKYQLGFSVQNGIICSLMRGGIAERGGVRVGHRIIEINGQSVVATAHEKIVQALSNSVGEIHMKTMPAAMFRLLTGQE

T12: CARD11, Q9BXL7
T12 sequence (Q9BXL7 662-765, limits assumed, looked up): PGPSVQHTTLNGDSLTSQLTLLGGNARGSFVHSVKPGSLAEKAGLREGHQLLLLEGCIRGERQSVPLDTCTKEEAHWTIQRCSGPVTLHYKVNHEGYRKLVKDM


Columns and labels:
Experiment in all cases: holdup assay
Design in all cases: key: below the threshold = too weak to quantify, mostly under pKd 3.1 to 4
Conditions in all cases: plain residues with an end cap or a label only (N-terminal biotin on a linker: ado-ado)
PICK1, Q9NRD5 = biological target: PICK1, Q9NRD5
DLG3_1, Q92796 = biological target: T1, DLG3_1, Q92796
GRIP1_2, Q9Y3R0 = biological target: T2, GRIP1_2, Q9Y3R0
MPP2, Q14168 = biological target: T3, MPP2, Q14168
SNTB1, Q13884 = biological target: T4, SNTB1, Q13884
TJP2_1, Q9UDY2 = biological target: TJP2_1, Q9UDY2
DLG1_3, Q12959 = biological target: DLG1_3, Q12959
LNX1_2, Q8TBB1 = biological target: LNX1_2, Q8TBB1
TJP1_2, Q07157 = biological target: TJP1_2, Q07157
DLG4_2, P78352 = biological target: DLG4_2, P78352
RADIL, Q96JH8 = biological target: T5, RADIL, Q96JH8
DLG1_1, Q12959 = biological target: DLG1_1, Q12959
ARHGEF11, O15085 = biological target: T6, ARHGEF11, O15085
AHNAK1, Q09666 = biological target: AHNAK1, Q09666
MAGI2_4, Q86UL8 = biological target: MAGI2_4, Q86UL8
DLG2_3, Q15700 = biological target: DLG2_3, Q15700
LAP2, Q96RT1 = biological target: LAP2, Q96RT1
APBA1_1, Q02410 = biological target: T7, APBA1_1, Q02410
Inadl_10, Q8NI35 = biological target: Inadl_10, Q8NI35
MPDZ_5, O75970 = biological target: T8, MPDZ_5, O75970
PDZRN4_1, Q6ZMN7 = biological target: PDZRN4_1, Q6ZMN7
LNX2_2, Q8N448 = biological target: T9, LNX2_2, Q8N448
TX1BP3, O14907 = biological target: T10, TX1BP3, O14907
APBA2_2, Q99767 = biological target: T11, APBA2_2, Q99767
MAGI3_2, Q5TCQ9 = biological target: MAGI3_2, Q5TCQ9
CARD11, Q9BXL7 = biological target: T12, CARD11, Q9BXL7

Sequence of PICK1, Q9NRD5 (Q9NRD5 17-115): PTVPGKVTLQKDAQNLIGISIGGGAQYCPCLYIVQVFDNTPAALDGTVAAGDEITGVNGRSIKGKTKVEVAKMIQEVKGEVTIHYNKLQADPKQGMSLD
Sequence of PDZRN4_1, Q6ZMN7 (Q6ZMN7 213-318): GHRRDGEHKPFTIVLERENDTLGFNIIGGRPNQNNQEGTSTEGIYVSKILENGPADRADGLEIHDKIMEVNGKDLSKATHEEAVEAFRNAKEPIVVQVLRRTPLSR
Sequence of MAGI2_4, Q86UL8 (Q86UL8 772-865): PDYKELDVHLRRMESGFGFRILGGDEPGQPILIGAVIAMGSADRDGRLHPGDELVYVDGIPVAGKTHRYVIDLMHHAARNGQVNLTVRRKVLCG
Sequence of MAGI3_2, Q5TCQ9 (Q5TCQ9 398-503): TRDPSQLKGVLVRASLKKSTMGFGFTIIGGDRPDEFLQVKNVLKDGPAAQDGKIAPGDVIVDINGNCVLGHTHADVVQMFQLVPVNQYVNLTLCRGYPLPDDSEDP
Sequence of DLG4_2, P78352 (P78352 155-259): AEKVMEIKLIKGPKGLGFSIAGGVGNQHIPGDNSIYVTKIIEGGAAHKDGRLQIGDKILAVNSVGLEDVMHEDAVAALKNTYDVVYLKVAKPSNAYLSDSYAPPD
Sequence of LAP2, Q96RT1 (Q96RT1 other isoform, or with tags, fused parts or gaps): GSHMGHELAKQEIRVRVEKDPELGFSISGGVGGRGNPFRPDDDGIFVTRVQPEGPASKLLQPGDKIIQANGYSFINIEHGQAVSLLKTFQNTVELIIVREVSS
Sequence of TJP1_2, Q07157 (Q07157 181-274): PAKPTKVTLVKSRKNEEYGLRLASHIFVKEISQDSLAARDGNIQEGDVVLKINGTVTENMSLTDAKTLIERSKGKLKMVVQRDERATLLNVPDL
Sequence of AHNAK1, Q09666 (Q09666 4-100): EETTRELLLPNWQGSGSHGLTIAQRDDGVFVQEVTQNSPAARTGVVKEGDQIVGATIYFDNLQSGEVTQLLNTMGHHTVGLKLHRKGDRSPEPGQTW
Sequence of LNX1_2, Q8TBB1 (Q8TBB1 371-470): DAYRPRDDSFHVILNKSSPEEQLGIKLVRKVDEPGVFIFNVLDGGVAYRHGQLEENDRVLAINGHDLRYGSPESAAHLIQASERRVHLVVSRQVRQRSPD
Sequence of TJP2_1, Q9UDY2 (Q9UDY2 24-128): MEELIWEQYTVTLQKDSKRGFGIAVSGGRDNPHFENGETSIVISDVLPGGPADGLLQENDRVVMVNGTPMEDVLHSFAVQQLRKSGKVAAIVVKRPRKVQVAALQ
Sequence of Inadl_10, Q8NI35 (Q8NI35 1673-1763): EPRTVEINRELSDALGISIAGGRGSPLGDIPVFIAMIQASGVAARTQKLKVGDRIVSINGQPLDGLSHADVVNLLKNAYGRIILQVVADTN

Binder | pKd (PICK1, Q9NRD5) | pKd (DLG3_1, Q92796) | pKd (GRIP1_2, Q9Y3R0) | pKd (MPP2, Q14168) | pKd (SNTB1, Q13884) | pKd (TJP2_1, Q9UDY2) | pKd (DLG1_3, Q12959) | pKd (LNX1_2, Q8TBB1) | pKd (TJP1_2, Q07157) | pKd (DLG4_2, P78352) | pKd (RADIL, Q96JH8) | pKd (DLG1_1, Q12959) | pKd (ARHGEF11, O15085) | pKd (AHNAK1, Q09666) | pKd (MAGI2_4, Q86UL8) | pKd (DLG2_3, Q15700) | pKd (LAP2, Q96RT1) | pKd (APBA1_1, Q02410) | pKd (Inadl_10, Q8NI35) | pKd (MPDZ_5, O75970) | also measured
TKGPRGPTRV [SAPCD1, Q5SSQ6] | 4.11 | 3.96 | below the threshold | below the threshold | 4.46 | 3.9 | 4.31 | below the threshold | below the threshold | 4.53 | 3.54 | 4.38 | 4.03 | below the threshold | below the threshold | 4.55 | 3.72 | below the threshold | below the threshold | below the threshold | pKd (PDZRN4_1, Q6ZMN7): 3.67; pKd (LNX2_2, Q8N448): 3.87; pKd (TX1BP3, O14907): below the threshold; pKd (APBA2_2, Q99767): below the threshold; pKd (MAGI3_2, Q5TCQ9): 5.41; pKd (CARD11, Q9BXL7): below the threshold
FNSYSLTGYV [CLDN2, P57739] | 4.14 | below the threshold | below the threshold | below the threshold | 3.61 | 4.84 | below the threshold | 4.19 | below the threshold | 3.56 | 4.99 | below the threshold | 3.94 | below the threshold | 4.24 | below the threshold | below the threshold | below the threshold | below the threshold | below the threshold | pKd (PDZRN4_1, Q6ZMN7): 3.49; pKd (LNX2_2, Q8N448): 4.98; pKd (TX1BP3, O14907): 4.3; pKd (APBA2_2, Q99767): below the threshold; pKd (MAGI3_2, Q5TCQ9): 4.21; pKd (CARD11, Q9BXL7): below the threshold
SNAGNTATKA [NOSTRIN, Q8IVI9] | below the threshold | below the threshold | below the threshold | below the threshold | below the threshold | below the threshold | below the threshold | below the threshold | below the threshold | below the threshold | 3.57 | below the threshold | below the threshold | below the threshold | below the threshold | 3.6 | below the threshold | below the threshold | below the threshold | below the threshold | pKd (PDZRN4_1, Q6ZMN7): below the threshold; pKd (LNX2_2, Q8N448): 3.56; pKd (TX1BP3, O14907): below the threshold; pKd (APBA2_2, Q99767): below the threshold; pKd (MAGI3_2, Q5TCQ9): below the threshold; pKd (CARD11, Q9BXL7): below the threshold

The next lines start with results.

pKd (PICK1, Q9NRD5) | pKd (DLG3_1, Q92796) | pKd (GRIP1_2, Q9Y3R0) | pKd (MPP2, Q14168) | pKd (SNTB1, Q13884) | pKd (TJP2_1, Q9UDY2) | pKd (DLG1_3, Q12959) | pKd (LNX1_2, Q8TBB1) | pKd (TJP1_2, Q07157) | pKd (DLG4_2, P78352) | pKd (RADIL, Q96JH8) | pKd (DLG1_1, Q12959) | pKd (ARHGEF11, O15085) | pKd (AHNAK1, Q09666) | pKd (MAGI2_4, Q86UL8) | pKd (DLG2_3, Q15700) | pKd (LAP2, Q96RT1) | pKd (APBA1_1, Q02410) | pKd (Inadl_10, Q8NI35) | pKd (MPDZ_5, O75970) | Binder | also measured
below the threshold | 3.88 | below the threshold | below the threshold | 4.94 | below the threshold | below the threshold | below the threshold | 3.54 | 4.59 | 4.05 | 4.19 | 3.99 | below the threshold | 3.76 | below the threshold | 3.66 | below the threshold | below the threshold | below the threshold | QGPVETESVV [SLC45A4, Q5BKX6] | pKd (PDZRN4_1, Q6ZMN7): 3.64; pKd (LNX2_2, Q8N448): 4.31; pKd (TX1BP3, O14907): 3.81; pKd (APBA2_2, Q99767): below the threshold; pKd (MAGI3_2, Q5TCQ9): 4.47; pKd (CARD11, Q9BXL7): below the threshold
below the threshold | below the threshold | below the threshold | below the threshold | below the threshold | below the threshold | below the threshold | below the threshold | below the threshold | below the threshold | below the threshold | below the threshold | below the threshold | below the threshold | below the threshold | 3.62 | below the threshold | below the threshold | below the threshold | below the threshold | KKAPTNEFYA [SDC4, P31431] | pKd (PDZRN4_1, Q6ZMN7): below the threshold; pKd (LNX2_2, Q8N448): below the threshold; pKd (TX1BP3, O14907): 3.85; pKd (APBA2_2, Q99767): below the threshold; pKd (MAGI3_2, Q5TCQ9): below the threshold; pKd (CARD11, Q9BXL7): below the threshold
